pEC50, pKd: −log10 of the molar value.
Tests used:
[1] = target: recombinant human FcγRIIb (R&D Systems) (human) (UniProt P31994); experiment: Biacore SPR
[2] = target: recombinant human FcγRIIb (R&D Systems) (human) (UniProt P31994); experiment: Biacore SPR, global Langmuir fit (mean ± SD, n = 4)
[3] = target: FcγRIIb on the cell surface (UniProt P31994); experiment: binding to FcγRIIb on the cell surface
FcγRIIaH (human) [4] = target: FcγRIIaH (human) (UniProt P12318); experiment: Biacore SPR [cont.]
Sequence of FcγRIIaH (human) (P12318 34-217): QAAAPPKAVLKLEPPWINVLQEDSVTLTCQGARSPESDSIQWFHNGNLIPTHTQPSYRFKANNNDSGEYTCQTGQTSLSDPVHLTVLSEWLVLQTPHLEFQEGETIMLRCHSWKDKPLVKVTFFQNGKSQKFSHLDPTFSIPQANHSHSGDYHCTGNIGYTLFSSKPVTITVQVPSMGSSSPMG

[5] = target: human FcγRIIIa, V158 isoform (human) (UniProt P08637); experiment: Biacore SPR [cont.]
Sequence of human FcγRIIIa, V158 isoform (human) (P08637 17-208 F176V limits assumed): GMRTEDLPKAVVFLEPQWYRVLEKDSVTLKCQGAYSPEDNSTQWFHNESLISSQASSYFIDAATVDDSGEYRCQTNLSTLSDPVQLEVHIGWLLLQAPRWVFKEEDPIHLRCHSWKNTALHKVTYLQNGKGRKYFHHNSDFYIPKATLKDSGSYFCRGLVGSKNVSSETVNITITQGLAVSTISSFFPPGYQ

FcγRI (human) [6] = target: FcγRI (human) (UniProt P12314); experiment: Biacore SPR [cont.]
Sequence of FcγRI (human) (P12314 16-288 limits assumed): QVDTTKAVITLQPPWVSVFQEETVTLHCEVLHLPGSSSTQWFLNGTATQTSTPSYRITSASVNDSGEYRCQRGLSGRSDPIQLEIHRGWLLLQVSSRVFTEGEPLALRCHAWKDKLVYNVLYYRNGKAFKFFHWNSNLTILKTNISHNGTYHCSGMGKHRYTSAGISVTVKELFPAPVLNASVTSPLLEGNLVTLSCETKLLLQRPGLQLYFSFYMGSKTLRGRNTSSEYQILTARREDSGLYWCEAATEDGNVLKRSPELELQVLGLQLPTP

[7] = target: recombinant human FcγRIIb (R&D Systems) (human) (UniProt P31994); experiment: Biacore SPR [cont.]
FcγRIIaH (human) [8] = target: FcγRIIaH (human) (UniProt P12318); experiment: Biacore SPR
FcγRIIaR (human) [9] = target: FcγRIIaR (human) (UniProt P12318); experiment: Biacore SPR
[10] = target: human FcγRIIIa, V158 isoform (human) (UniProt P08637); experiment: Biacore SPR
FcγRIIIaF (human) [11] = target: FcγRIIIaF (human) (UniProt P08637); experiment: Biacore SPR
Sequence of FcγRIIIaF (human) (P08637 17-208 limits assumed): as the sequence (P08637 17-208 F176V limits assumed) above, with V160F counted along it

FcγRI (human) [12] = target: FcγRI (human) (UniProt P12314); experiment: Biacore SPR
FcγRIIaR (human) [13] = target: FcγRIIaR (human) (UniProt P12318); experiment: Biacore SPR [cont.]
FcγRIIIaF (human) [14] = target: FcγRIIIaF (human) (UniProt P08637); experiment: Biacore SPR [cont.]

Sequence of FcγRIIb on the cell surface (P31994 43-310 limits assumed): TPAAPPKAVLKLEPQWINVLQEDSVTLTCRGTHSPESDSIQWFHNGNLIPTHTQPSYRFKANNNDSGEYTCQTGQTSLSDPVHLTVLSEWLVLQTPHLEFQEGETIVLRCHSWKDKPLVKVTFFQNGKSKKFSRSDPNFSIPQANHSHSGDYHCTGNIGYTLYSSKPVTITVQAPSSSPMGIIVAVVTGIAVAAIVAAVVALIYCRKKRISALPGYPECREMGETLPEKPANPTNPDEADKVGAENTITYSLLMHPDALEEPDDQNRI
Sequence of recombinant human FcγRIIb (R&D Systems) (human) (P31994 46-217 limits assumed): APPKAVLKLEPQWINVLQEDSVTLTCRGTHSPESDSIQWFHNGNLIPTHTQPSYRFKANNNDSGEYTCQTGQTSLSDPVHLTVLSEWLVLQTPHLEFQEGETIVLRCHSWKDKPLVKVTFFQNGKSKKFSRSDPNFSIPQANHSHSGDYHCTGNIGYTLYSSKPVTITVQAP

Fold (KD native IgG1/KD variant) [1] [fold]	pKd [2]	pEC50 [3]	pKd (FcγRIIaH (human) [4])	pKd [5]	pKd (FcγRI (human) [6])	pKd [7]	pKd (FcγRIIaR (human) [13])	Fold (against native IgG1) [3] [fold]	other results	Substance
1.8	6.00	–	–	–	–	–	–	–	–	G236D (antibody)
–	7.60	8.22	5.56	6.24	8.43	7.58	–	–	–	G236D/S267E (antibody)
–	6.19	–	–	–	–	–	–	–	–	L328F (antibody)
–	5.74	6.36	–	–	–	–	–	–	pKd (FcγRIIaH (human) [8]): 6.19; pKd (FcγRIIaR (human) [9]): 6.07; pKd [10]: 6.72; pKd (FcγRIIIaF (human) [11]): 5.87; pKd (FcγRI (human) [12]): 9.48; pKd [1]: 5.83	Native IgG1 (antibody)
–	6.42	–	–	–	–	–	–	–	–	S239D (antibody)
–	–	–	6.79	–	10.43	7.00	7.16	–	pKd (FcγRIIIaF (human) [14]): 7.55	S239D/I332E (antibody)
150	7.92	8.70	6.29	7.29	10.85	7.88	8.15	220	Fold (FcγRIIaH (human) [4]): 1.27; Fold (FcγRIIaR (human) [13]): 120; Fold [5]: 3.74; Fold (FcγRIIIaF (human) [14]): 2.62; pKd (FcγRIIIaF (human) [14]): 6.29; Fold (FcγRI (human) [6]): 23.2; Fold [7]: 111	S239D/S267E (antibody)
30	–	7.60	–	–	–	–	–	18	–	S267E (antibody)
430	8.38	8.85	6.03	5.30	9.66	8.22	8.51	320	Fold (FcγRIIaH (human) [4]): 0.7; Fold (FcγRIIaR (human) [13]): 275; Fold [5]: 0.038; Fold (FcγRI (human) [6]): 1.5; Fold [7]: 242	S267E/L328F (antibody)

Reference: US20110189178A1
